{"source": "paper PMC5457915", "about": "“Real-time analysis of the binding of fluorescent VEGF165a to VEGFR2 in living cells: Effect of receptor tyrosine kinase inhibitors and fate of internalized agonist-receptor complexes” (Biochemical Pharmacology, 2017)", "molecular_target": "VEGFR2 (Homo sapiens, UniProt P35968)", "sequence (P35968 20-1356)": "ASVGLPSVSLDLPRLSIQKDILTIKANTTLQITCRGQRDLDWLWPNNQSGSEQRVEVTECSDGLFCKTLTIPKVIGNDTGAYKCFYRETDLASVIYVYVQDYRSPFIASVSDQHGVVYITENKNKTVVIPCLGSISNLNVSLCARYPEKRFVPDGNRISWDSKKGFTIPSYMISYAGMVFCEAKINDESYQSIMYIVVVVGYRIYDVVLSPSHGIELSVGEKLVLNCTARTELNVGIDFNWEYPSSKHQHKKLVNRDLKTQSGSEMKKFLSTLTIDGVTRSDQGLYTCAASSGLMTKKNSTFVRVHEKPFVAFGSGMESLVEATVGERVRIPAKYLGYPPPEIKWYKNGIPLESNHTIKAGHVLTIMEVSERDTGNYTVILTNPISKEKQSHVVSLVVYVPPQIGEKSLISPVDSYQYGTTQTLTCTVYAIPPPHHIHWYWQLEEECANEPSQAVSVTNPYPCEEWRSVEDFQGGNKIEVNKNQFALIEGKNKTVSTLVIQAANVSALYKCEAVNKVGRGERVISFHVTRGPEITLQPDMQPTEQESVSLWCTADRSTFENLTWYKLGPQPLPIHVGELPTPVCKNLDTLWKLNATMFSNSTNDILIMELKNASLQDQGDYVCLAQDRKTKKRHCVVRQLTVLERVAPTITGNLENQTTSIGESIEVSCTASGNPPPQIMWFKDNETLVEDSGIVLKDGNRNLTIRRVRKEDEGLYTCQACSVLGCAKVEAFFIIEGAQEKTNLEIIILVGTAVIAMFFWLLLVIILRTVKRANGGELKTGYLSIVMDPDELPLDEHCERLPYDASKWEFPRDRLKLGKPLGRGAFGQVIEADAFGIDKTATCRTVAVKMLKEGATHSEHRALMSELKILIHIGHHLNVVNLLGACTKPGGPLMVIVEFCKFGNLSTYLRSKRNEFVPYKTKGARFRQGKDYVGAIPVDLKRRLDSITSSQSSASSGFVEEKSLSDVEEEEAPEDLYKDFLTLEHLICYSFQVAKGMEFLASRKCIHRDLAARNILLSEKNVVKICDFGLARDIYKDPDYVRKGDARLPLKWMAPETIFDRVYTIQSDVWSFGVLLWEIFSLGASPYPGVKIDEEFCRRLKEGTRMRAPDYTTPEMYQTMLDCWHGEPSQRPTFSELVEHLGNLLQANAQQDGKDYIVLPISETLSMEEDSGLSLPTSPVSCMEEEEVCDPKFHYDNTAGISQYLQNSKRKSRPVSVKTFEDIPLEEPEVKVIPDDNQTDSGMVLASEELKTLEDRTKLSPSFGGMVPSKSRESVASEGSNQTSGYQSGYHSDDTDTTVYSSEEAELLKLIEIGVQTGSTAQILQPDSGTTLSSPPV", "experiment": "NFAT luciferase reporter gene assay in HEK293T ReLuc2P cells stably expressing wild-type VEGFR2", "type": "cell-based", "parameters": "in cells expressing the wild-type VEGFR2 receptor; host or cells: HEK293T ReLuc2P suspension cell line", "details": "cells expressing the wild-type VEGFR2 receptor; n = 4", "protocol": "NFAT luciferase reporter gene activity was monitored in a HEK293T ReLuc2P (Promega Corporation, USA) suspension cell line stably expressing VEGFR2 as described previously.\nNFAT reporter genes: All data obtained from the NFAT luciferase reporter gene assays were normalised to 10 nM VEGF165a responses and fitted with non linear regression using the equation as described previously.", "data": [{"molecule": "non-fluorescent VEGF165a: unlabeled VEGF165a purified in an identical manner to VEGF165a-TMR, with modified N-terminus (protein, free N-terminal Cys (unlabeled); HEK293T-expressed, glycosylated; disulfide-linked antiparallel homodimer) CDNAPMAEGGGQNHHEVVKFMDVYQRSYCHPIETLVDIFQEYPDEIEYIFKPSCVPLMRCGGCCNDEGLECVPTEESNITMQIMRIKPHQGQHIGEMSFLQHNKCECRPKKDRARQENPCGPCSERRKHLFVQDPQTCKCSCKNTDSRCKARQLELNERTCRCDKPRR", "values": [{"measurement": "pEC50, NFAT reporter gene agonist activity", "value": "9.72 ± 0.09"}]}]}
